Experimental findings from US20090074779A1 are described below.

The test has as its target TrkC, Q16288. In words: SPR (BIAlite), receptor amine-coupled on CM4 chip, ligand injected, 25 C. The conditions noted are these: remark: other sources report otherwise.

Sequence of TrkC, Q16288 (Q16288 32-429 limits assumed): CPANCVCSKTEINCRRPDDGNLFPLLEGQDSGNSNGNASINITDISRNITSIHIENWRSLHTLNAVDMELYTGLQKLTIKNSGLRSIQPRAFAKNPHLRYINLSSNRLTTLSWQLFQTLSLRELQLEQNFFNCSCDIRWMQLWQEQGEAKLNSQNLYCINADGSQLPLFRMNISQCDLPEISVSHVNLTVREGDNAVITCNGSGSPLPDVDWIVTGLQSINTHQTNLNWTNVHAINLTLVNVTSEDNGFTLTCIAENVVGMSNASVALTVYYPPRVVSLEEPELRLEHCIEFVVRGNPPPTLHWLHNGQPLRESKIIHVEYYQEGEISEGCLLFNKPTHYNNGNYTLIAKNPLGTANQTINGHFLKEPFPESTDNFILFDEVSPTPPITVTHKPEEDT

B1: BDNF, P23560 129-247 (ligand, UniProt P23560 129-247, looked up)
chain: HSDPARRGELSVCDSISEWVTAADKKTAVDMSGGTVTVLEKVPVSKGQLKQYFYETKCNPMGYTKEGCRGIDKRHWNSQCRTTQSYVRALTMDSKKRIGWRFIRIDTSCVCTLTIKRGR
As a reminder, the Kd is the equilibrium constant for the complex coming apart. Read a high Kd as weaker binding. Turning to B1, the Kd is 14 nM.
